The supplement of paper PMC9732359
± gives the uncertainty stated by the source.

Assay: protein stability index of a GFP-peptide fusion (yeast GPS) (PSI 1-4); higher = more stable; sorted into four equal gates, so the index is relative within each strain
Procedure, shortened: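 Mid-log yeast cultures in leucine-free medium, carrying a pooled plasmid library, were sorted into four equal gates by their GFP/Cherry fluorescence ratio. Each plasmid expressed Cherry along with GFP fused upstream of a tiled 17-residue yeast protein peptide. Plasmids recovered from each gate were PCR-amplified and Illumina-sequenced, with reads assigned to strains by barcodes. The protein stability index was obtained by summing each gate's read frequency weighted by its gate number.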

| Sequence | protein stability index (doa10∆) | protein stability index (pdr5∆) | protein stability index (san1∆) | protein stability index (ubr1∆) |
| --- | --- | --- | --- | --- |
| ILTTAVGLVSPSFMLKH [RPN1] | 1.96 ± 0.16 | 1.93 ± 0.12 | 1.3 ± 0.13 | 1.52 ± 0.077 |
| PINLPPQIAQLPLATQQ [SNF5] | 2.15 ± 0.071 | 2.49 ± 0.059 | 2.46 ± 0.089 | 2.27 ± 0.053 |
| KEVIELPVKHPELFESL [RPT6] | 2.98 ± 0.064 | 3.04 ± 0.036 | 3.05 ± 0.054 | 3.09 ± 0.055 |
| SKYYPGVIIKVEESGEH [SNU114] | 1.96 ± 0.061 | 2.08 ± 0.077 | 2.28 ± 0.08 | 2.42 ± 0.073 |
| IIFEIEKPLVVPVKLEE [RRP6] | 1.88 ± 0.079 | 2.28 ± 0.071 | 2.21 ± 0.12 | 2.14 ± 0.073 |
| KILSILNRSHFATTKAE [ECM29] | 2.68 ± 0.076 | 2.33 ± 0.048 | 2.4 ± 0.047 | 2.19 ± 0.037 |
| DQYIQKQVQISHHLKAD [YGL172W/NUP49] | 2.78 ± 0.076 | 2.71 ± 0.092 | 2.6 ± 0.072 | 3.07 ± 0.057 |
| ILVLALEDLKDVYASKV [PRP8] | 2.29 ± 0.064 | 1.8 ± 0.057 | 2.85 ± 0.081 | 2.21 ± 0.066 |
| FQALDSEETQFKYVEDR [ITC1] | 2.88 ± 0.097 | 3.44 ± 0.12 | 3.06 ± 0.069 | 3.45 ± 0.14 |
| MAGSQFENGNITGEDEV [RRP45] | 3.02 ± 0.095 | 3.08 ± 0.1 | 3.13 ± 0.13 | 2.95 ± 0.09 |
| SSFKEDCLSFAPTLSQT [SSN2] | 2.7 ± 0.084 | 2.67 ± 0.1 | 3.03 ± 0.086 | 2.91 ± 0.052 |
| TDLRFQSSAIGALQESV [HHT1] | 1.32 ± 0.13 | 1.41 ± 0.13 | 1.32 ± 0.17 | 1.32 ± 0.23 |
| LSVDDIRGAVGNSEAIP [RTT102] | 3.35 ± 0.053 | 3.38 ± 0.057 | 3.3 ± 0.056 | 3.41 ± 0.047 |
| LQAFGESESTTNVYSKD [RPB3] | 2.08 ± 0.081 | 2.1 ± 0.06 | 1.68 ± 0.076 | 1.72 ± 0.041 |
| YEMVIREKNALKRLAWQ [ISW2] | 2.08 ± 0.047 | 2.5 ± 0.062 | 2.32 ± 0.048 | 2.37 ± 0.055 |
| LAAIVSTVIEEFTLFMD [YGL172W/NUP49] | 2.21 ± 0.052 | 2.56 ± 0.061 | 2.1 ± 0.074 | 2.42 ± 0.055 |
| WKNLVLKLSQAFGSSAT [YJR042W/NUP85] | 2.58 ± 0.055 | 1.95 ± 0.053 | 2.22 ± 0.055 | 1.93 ± 0.044 |
| FRALGIIPDGEILEHIC [RPB2] | 2.43 ± 0.057 | 2.55 ± 0.12 | 2.46 ± 0.089 | 2.79 ± 0.047 |
| IRGILMASGSTTFTKVA [PRP8] | 2.76 ± 0.063 | 2.02 ± 0.1 | 2.02 ± 0.16 | 2.15 ± 0.088 |
| NSNSNQQSTDADEDDED [RPT1] | 2.32 ± 0.095 | 2.34 ± 0.093 | 2.46 ± 0.091 | 2.37 ± 0.061 |

| Sequence | protein stability index (doa10∆) | protein stability index (pdr5∆) | protein stability index (san1∆) | protein stability index (ubr1∆) |
| --- | --- | --- | --- | --- |
| VNGRTKSNTIPVTSIPS [GAL11] | 2.9 ± 0.072 | 2.87 ± 0.11 | 2.99 ± 0.077 | 2.95 ± 0.079 |
| NDVTRRTVKNILVSVLP [CSL4] | 2.89 ± 0.12 | 3.12 ± 0.1 | 3.11 ± 0.08 | 3.09 ± 0.11 |
| GRVTFIPLNRLSLDSDV [SMC3] | 2.65 ± 0.09 | 2.9 ± 0.053 | 2.85 ± 0.063 | 3.09 ± 0.058 |
| PKDTSAATMTSAPPPAL [RGR1] | 2.49 ± 0.1 | 2.59 ± 0.1 | 2.51 ± 0.069 | 2.85 ± 0.097 |
| INSTKNGKDNNNESNKN [MED2] | 3.08 ± 0.052 | 3.15 ± 0.045 | 3.22 ± 0.038 | 3.19 ± 0.033 |
| EVLTYVNYLISNTMYSV [YJL039C/NUP192] | 2.45 ± 0.056 | 2.35 ± 0.054 | 2.45 ± 0.044 | 2.5 ± 0.042 |
| NSFIKANLPWLGKAQNW [RPN2] | – | 2.6 ± 0.13 | – | – |
| SINKNNKEMHTDLGKDI [SSN2] | – | 2.07 ± 0.22 | 3.21 ± 0.12 | 3.48 ± 0.14 |
| LDIPNVSLVVNFQISKK [PRP28] | 2.32 ± 0.067 | 2.51 ± 0.077 | 2.35 ± 0.087 | 2.71 ± 0.069 |
| SKKSTITVRYWLNGKMD [RGR1] | – | – | 2.28 ± 0.2 | – |
| LEQQKQPTGLLKGLNGF [YMR153W/NUP53] | 3.53 ± 0.12 | 3.46 ± 0.11 | 3.18 ± 0.11 | 3.34 ± 0.074 |
| EKTYTKAPKIQRLVTPQ [RPS6A] | 2.62 ± 0.056 | 2.43 ± 0.055 | 2.11 ± 0.064 | 2.22 ± 0.037 |
| QLELRQLNASISLIPEL [RRI2] | 2.55 ± 0.062 | 2.58 ± 0.069 | 2.42 ± 0.063 | 2.85 ± 0.043 |
| AQFQYTLDRNTAAETFK [RPL8A] | 2.15 ± 0.082 | 2.08 ± 0.082 | 2.64 ± 0.27 | 2.06 ± 0.049 |
| LLLKKLDNFQKSVEKTM [SMC3] | 2.54 ± 0.2 | 2.74 ± 0.23 | 2.44 ± 0.24 | 2.88 ± 0.17 |
| QAPFSTSTKDKNSSTSN [MED1] | 3.11 ± 0.062 | 3.24 ± 0.068 | 3.12 ± 0.054 | 3.09 ± 0.048 |
| SHIESDSTSHNNGSSDK [MED1] | 2.89 ± 0.042 | 2.94 ± 0.038 | 2.84 ± 0.042 | 3.01 ± 0.032 |
| SGDREVQRTMLELLNQL [RPT5] | 3.28 ± 0.12 | 2.73 ± 0.28 | 3.12 ± 0.12 | 3.21 ± 0.1 |
| NLKGRPYTGWVDSKTKE [FAS2] | 3.03 ± 0.062 | 2.95 ± 0.047 | 3.11 ± 0.048 | 3.04 ± 0.045 |
